Test: soluble on expression in E. coli; label from the status in PepcDB or PDB records
With “MGSSHHHHHHSSGRENLYFQGMPSLTPRCIIVRAGQTEWSKSGQYTGLTDLPLTPYGEGQMLRTGESVFRNNQFLNPDNITYIFTSPRLRARQTVDLVLKPLSDEQRAKIRVVVDDDLREWEYGDYEGMLTREIIELRKSRGLDKERPWNIWRDGCENGETTQQIGLRLSRAIARIQNLHRKHQSEGRASDIMVFAHGHALRYFAAIWFGLGVQKKCETIEEIQNVKSYDDDTVPYVKLESYRHLVDNPCFLLDAGGIGVLSYAHHNIDEPALELAGPFVSPPEEESQHGDV” the “soluble on expression in E. coli” value was “soluble”.
For “MRILVVRHGLPEDPRCFAYDPVQRLIAIGTGRGHIRIIGDAGVDYLLKHESGEPVLHMQFLVNEGGLITSCGTDSIHLWNYRQKTAEIVHTVQLSKESVSCIHLPVAGKWLFIGTDKGNVYFLCLNSFLLSPYVINWNKAIDLSCRVHPGPVRQLAVSPAENTKLLIVYDKGIVVQWNLGTREVDRYPLDPPIKSVNWHFDGRQILTGNVDGSISLYNHKKSTEAIQRTTPHGSGPCRPIQQVEWKHMSETESIIMFSGGMPTDDGLPMPALTILKGGKSATVLEMDWPIIQFIPLNQNIWNSIPQCPHSVAVLLKHDFMVLDLNQNGHPVIESPHAMNIHESPVTCMAYYSDCPLDLIGALTLVGTKQRNKEFSARSWPVTGGLGRECATGHQELVVTGHKDGSLKFWQETGEHLQILYKLKSSSHFERLEEMETSDKVSHAVKYIELCLESRQLLVAGISGQVTLFRFTKQEICGTIAVVNIPLLGNLSSNLPNNDFDKSPVPNGPGKEIRRQRKIVSRESTNSLDTSDSGDERIVPFKVRGAPVKRPPGFVPELACFVPWHSHAKVDQITTICLNSSYGIIAIGTSSGLALVDTTQCALIYSWTTNELYGSDPTPAIQLSMQLSDAASPLEIDEFENDDTLIYNTDTGNYTLRSTRNSLTPSSNGFLHPGEMPTRPKSAANSSNKSGGMMGLFRRNTAELAATIRERYQGNRSESATTDRPDVEHRGETPPPTPNEGNKVQKAGRSHSVKGSFIRRFAKSSSSKEKKEVKIEVDNQSNSGIERSRSFHSHISEEGDSQRESPSSGRQLNTSSPSTSSQSLERSMSTQPQESITSLSFIHSYSKKNDSKMSPCLWVGTSAGASLALNLILPEDRFTSTIVVAPSGTVVRLKGQVISQSFMDNTFCIISPASESYKEAAKEQSATSPDRSLLNRVNTKASLAPQYSSSIDSNDEISQILIVAAENEVKVVALPTFSQLYVQKFDEIPLVKATPTHIRGYPCLMCLSAAGQIIMLSLPSLRILQTSTIFPHSVEIDDPLCQKTAFSDHGLGVYMASQTEMEKYTMCSEIAEQTGESLGELFVPCEMPEQPKNNSFLKGVSSIFGGTPRNDPNDIDAILSENMGVKNSSGVNPMRSVARTIPGPSVQMDRAQAGGVSAGQAAAMALQNLNERTEKLNATVDATENLKNNAMSLSSRTGKLVEKYEKKKWYNF”, the “soluble on expression in E. coli” value was “not soluble”.
With “MGSDKIHHHHHHMIPWVISPYSFDGSVVRFEKLALLLKRKGLKSVILADRNFHAAVKFNTIMRKHGLIPVHGLWKDGRIFVARNREEFDSLVRYYNGETHEIEDIPVFQESELTPVRYLDASEKKASIFMRKIFGLDEDVQGFPEKCEDVADILNAEAYDLRVNHRFPTPPKNWNELLIKKAEPLGEEYISRLKRELEVIKRKGFTPYIYTVEKVVEIAKKMGIKVGPGRGSAVGSLVAYLCGITEVDPIKYDLLFERFLNEERQEPPDIDVDVEDRRRKDLIKELSKSFQVYQVSTFGNLTEKSLKNLINSVLPDASLEEKNEIYKTVYGLPHHPSVHAAGVVISENPLPLPTRTEEDIPITDYDMYDLQEIGVVKIDILGLKTLSFIKDFKKEIFDYSDEKTYHLISKGKTLGVFQLEGLQARKLCRRISPRNMDELSILLALNRPGPLRSGLDVMFSNSKNVPAFFRKMFPETRGVLIYQEQIMRLAMFAGLSGTEADILRRAIAKKEREKMEPLLEKMKKGLLEKGMENAEQILEILLNFSSYAFNKSHSVAYAHITYQTAYLKAHHLEEFFKLYFAYNSSDAGKIFLAVQELRNEGYRVHPPDINISGKDLVFHGKDVYLPLTVVKGVGVTLVEQIEKIRPVSSVRELQERVTGVPRNVVESLITAGAFDKLYENRKLALEELNKRVEKDILEIRSLFGEKVEQESSNIKIGDITELEEKSMGFPLTPVHEVPTGLFARIDDVFTYGRILPVLVKRVSRNIVTDGLSVCRVRTDVPDGVHLVLLSPLQKIIKIWPFNENTRFVYRVDFTATLEKAGQNEITEVLKNGAVVRYEGYRPLTDEYRYRVVPR” the “soluble on expression in E. coli” value was “not soluble”.
For “GSAMAPTNDQLTDLQEAHFVVFESEENSESVMDGFVEHPFYTATLNGQKYVVMKTKDDSYWKDLIVEGKRVTTVSKDPKNNSRTLIFPYIPDKAVYNAIVKVVVANIGYEGQYHVRIINQDINTKDDDTSQ”, the “soluble on expression in E. coli” value was “soluble”.
With “MGSDKIHHHHHHMSELTDLLLQGPRSAPELRQRLAISQATFSRLVAREDRVIRFGKARATRYALLRPYRGIERIPVWRVDDTGKAHKFADIRLCWPQGSCLVTGADGDEQWFDGLPWYLTDLRPQGFLGRAWGRKLAAQLNLTDDIRLWQEEDVLYALTVFNGEYTGGWLVGEGNYQRWITAQHPAEIPLDQKLTHYEQLASDALAGEIVGSSAGGEQPKFTYYAQTPSGNKHVLVKFTVPQQTAVSQRWGDLLIAESIAAQILRDGGIHAIESTVLVTSNRQVFLEAERFDCKGNDGRLPIVSLEAVQSEFISSPGSWPQAMRRLCEQQLVTHQSVAQTEVIWAFGRLIANSDMHAGNLSFYLSEPPFALTPVYDMLPMVYAPNSAGMLRDAAIEVKFDLNVSKSAWLTAIPLAQQFWQTVARDPRISEAFRHIAQEMPEKIRQIEEKVARMGG” the “soluble on expression in E. coli” value was “not soluble”.
In the case of “MGSDKIHHHHHHMCTRFVYNGKETIVGFNFDIDLSEWEHTVIAEKDRFFIGIKMSDNKYHSFHGINRNGNVGTLLYVHGNDNAQFCSNESCYTIADLTENFIKGNLSFDDSLEIVKKKKITYAPDTTMQAMFSDRNGRVLIIEPGIGYRLEKEKYSLITNYSILKPELTNPYVLSGDNRYEKAKDLLQGYGENFSISNAFDVLRSVRQEGLWATRVSFIYSVAKNKVYYVLNNDFKNIAEYQF”, the “soluble on expression in E. coli” value is reported as “not soluble”.
In the case of “MSLKKENSVEFKVSGRYALFSDPINRIGGEKFSYQVPTYQALKGILESVYWKPTLIWIIDEVRVMNLIKTQSQNIRPVNFSGTSKGTGTPLNTLSIYTYLTNVEYQVKAHFEWNYNRPNLEKDRNENKHYIVAKRMINRGGRRDVFLGTRECQAYVEPCKFGEGEGAYDHYGSLSFGLMFHGFDYPDETGEDKLTARLWSPVMNNGYIKFLRPDECTIKRELSSMKPKVFDENNFSGLEEFEEEGDIIELDSEGHHHHHH”, the “soluble on expression in E. coli” value is reported as “soluble”.
For “MKFKAVFISDTHLGTKDSKASLLLEFIKEIETKELYLVGDIIDGWSLKRKWIWLQPHSDVIQKILKAARKGVRVTYILGNHDEFIRPFLPLALGDHIRVVDEATYKAKNKKRYKIVHGDLYDSITMTKKWLAILGDNGYQFLLRLNDPINTLRQRLGFRRYWSFSQFIKDHVKQAVAYISDFEKILVAHAREEKFDGIICGHIHKAEIRDIEGITYMNCGDWVESCTALVETLEGEFKIIRWLDER”, the “soluble on expression in E. coli” value was “not soluble”.
For “MGSDKIHHHHHHELVIDITRGVREPMPIAIPVFGGTDAQSSAMGRDVVGVVSNDLQGSGLFRVLDPAAYIQSLPNLAVQPQFADWRAINAQALVQGEVQPQGDGRLRVAFRLWDVFSGQQVVGRAFLTQGDNWRRVSHIIADEIYKAITGEEGYFDTRVVYVAETGPKTNRVKKLAIMDQDGANQRNLTNGESMVLTPRFSPTAQEITYLSYYNSVPRVYLFNIETGRRELLGDFPGMTFAPRFSPDGNKVIMSMALDGNTEIYEMDLRTRRSSRLTNHPSIDTSPSYAPDGRQITFNSDRGGAQQIYVMNADGSGVQRISFGDGRYATPVWSPRGDLIAFTKLKGGRFFIGAMRPDGSGEKILTEGFLVEGPTWAPNGRVLMFFRQDPNGRTTLHSIDVTGYNERQISTPTEASDPAWSPLLP”, the “soluble on expression in E. coli” value was “not soluble”.
With “RPGGDAREPRKIILHKGSTGLGFNIVGGEDGEGIFVSFILAGGPADLSGELRRGDRILSVNGVNLRNATHEQAAAALKRAGQSVTIVAQYRPEEYSRFES” the “soluble on expression in E. coli” value was “soluble”.
In the case of “SHEVVRDVPAMVVDRSNSTLSREYLRRVDATPEVSIVGHCTDMEEAKEQIRRRNAYGIIYVPEDFSEHLNTGRKAHISLYCDMSGLLYYKSLLIANTLVSLEMNKEIKIARSVGATERQGEIISYPIDYEDVALYNPTV”, the “soluble on expression in E. coli” value is reported as “not soluble”.
For “MVSDAHFQGQFEVELKYRVKNHDAFLNMVKQIEHEVMFENNQESDWFYDTPQRTLTQQGKSLVLREIQPAGIKLWIVKGPEADRCEATNITKLDSAQSMLENMGYEVIQCSKKIRSIFFVGEFHITLDFLDGFGHFAEFAIMTDDETALARYRERLVALAQQFHLSEADREHRSYKEILSALEHHHHHH”, the “soluble on expression in E. coli” value was “soluble”.
In the case of “MTDGTPTTLTDRIEAALRDVRDPNADLSVFDAGFVENIDAADGEVTIEADLTALDGQTSTQVVQAMLHAVDDVDGVDSVHVERTTPTGEGNAGVESFDRVVAVASAKGGVGKSTVATHLACALAADNDVALFDADIHGPNVPELLDVSGPVHSSEEGDPLPVRAGDMDVMSVGLMESGAPLAWRGAMAHDALNDLFENTAWRNDDVLVLDLPPGTGDVVLTTLQEVPVDGVVVVTTPFHASVSDTSRTVELFRDNDVPVLGTVVNMAEYVCDCCGEPNDLFTGDALGDLDAEVLAELPFSHDLQGTPAPGSVPDAVSSLGDAVESALDTAGEVGVDPTADIRDLQPQERKDRVRERFTALDSGEPFVLVSDRDPTPVGQFLGRLAEAPREAFDPFEVRRETPEAWVLETAKPLEHHHHHH”, the “soluble on expression in E. coli” value is reported as “soluble”.
For “GSHMSQVEKDNTQALIPTMNMARQLSEASAWELFAAQNLTSADNEKMWQAQGRMLTAQSLKINALLQALREQGFDTTAIEQQEQEISRSLRQQGELVGQRLQLRQQQQQLSQQIVAAADEIARLAQGQANNATTSAGATQAGIYDLIEQDQRQAAESALDRLIDIDLEYVNQMNELRLSALRVQQMVMNLGLEQIQKNAPTLEKQLNNAVKILQRRQIRIEDPGVRAQVATTLTTVSQYSDLLALYQQDSEISNHLQTLAQNNIAQFAQFSSEVSQLVDTIELRNQHGLA”, the “soluble on expression in E. coli” value was “soluble”.
With “MDPVRILRHLITGQSAIKRAFPPATLTVIEQAIAHSETLHGGEIVFAVEASLDLPLLLQNQIIRERAIDVFSLLRVWDTEHNNGVLIYLLMADHDVEIVADRGIHTKVDQTIWETACDTMKTTFRHGQFEQGVLAGIDLSTRVLQQFFPASTGKRKSELPDRPVVLLEHHHHHH” the “soluble on expression in E. coli” value was “not soluble”.
In the case of “MSLQKKAMIIYNPAAGKNKFRKLLPDAEKILTEADFEVTLVPSTPAPKSTTFIAKQAAEAGFDVVIAAGGDGTVNEVVNGLMQVDTPPKLGVLPVGTTNDYARALNFAKNPLEALRIIAKQETIRVDIGKANETEFFINNAAGGKITEITYAVKESMKSKWGRLAYLFSGLTVLPKLSPVYVEIAYNDKIFKGEILLFFVNKSNSVGGMETLCPPAELNSGMFELLILKKVSPKTLFQLFASIKKGTHLSSPHVIHARTNKVTINSEADLNVSYDGVYGGKAPYTLEVIPEALEVFADTNRISSRLRGEGHHHHHH”, the “soluble on expression in E. coli” value is reported as “soluble”.
With “MAHHHHHHMAADEDAREHRTMCRLLQAATGKLSDMTVTTNIETHIATLRAANMSTSPKEWHALFNSKNNSNAYEKLSAEGKKEAGALGGAAAWGAWRTDKEEAEKKKIGTQEDKDFPAIADARQQFAAHNRLLELTAKAVEISKKWKAAKDFITNDETNNIQKLLREALYEDGAAADALTQSTSFGTGSNWASHCNGDDKRKSISGDFLCMRGGSGGAAKECSGAFTGAEIDNQGTITTKWADLKASCALNTENVITPHEIAAALGSLARQPHTTRSSK” the “soluble on expression in E. coli” value was “not soluble”.
